In the supplement of paper PMC10724198:
± gives the standard deviation of the averaged measurements.

How the values were obtained:
Saccharomyces cerevisiae [1] = test: protein stability index of tFT-peptide fusion (C-terminal peptide) (PSI (0-1 scale)); higher = more stable (slower turnover)
Description: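 MPS profiling in S. cerevisiae of the tFT-X12 degron library: putative degron peptides plus stable controls, 12 aa, fused to the C-terminus of a sfGFP-mCherry timer. Cells are FACS-sorted into 8 mCherry/sfGFP bins and deep-sequenced. PSI runs from 0 (unstable) to 1 (stable). Backgrounds are wild type, das1Δ and doa10Δ at 30 °C, and wild type, das1Δ, cdc34-1 and cdc53-1 at 37 °C; 2-3 technical replicates each.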

Saccharomyces cerevisiae [2] = test: as above; details: genetic background: wild type; temperature: 30 C
[3] = genetic background: cdc34-1, temperature: 37 C
[4] = genetic background: cdc53-1, temperature: 37 C
[5] = genetic background: das1 deletion, temperature: 30 C
[6] = genetic background: das1 deletion, temperature: 37 C
[7] = genetic background: doa10 deletion, temperature: 30 C
[8] = genetic background: wild type, temperature: 30 C
[9] = genetic background: wild type, temperature: 37 C
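Note: PSI is a weighted mean of sequencing reads over stability bins, variants kept only with over 10 reads, mCherry proximal and sfGFP distal, peptide attached via GGGS linker.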

Sequence	protein stability index (Saccharomyces cerevisiae [1]; [3])	protein stability index (Saccharomyces cerevisiae [1]; [4])	protein stability index (Saccharomyces cerevisiae [1]; [5])	protein stability index (Saccharomyces cerevisiae [1]; [6])	protein stability index (Saccharomyces cerevisiae [1]; [7])	protein stability index (Saccharomyces cerevisiae [1]; [8])	protein stability index (Saccharomyces cerevisiae [1]; [9])	protein stability index (Saccharomyces cerevisiae [2])
FILFSEMFASSV	0.132 ± 0.021	0.175 ± 0.0083	0.265 ± 0.026	0.149 ± 0.02	0.28 ± 0.015	0.255 ± 0.028	0.137 ± 0.021	0.26 ± 0.0085
FLCIFFFFLISF	0.25 ± 0.012	0.194 ± 0.0028	0.261 ± 0.027	0.32 ± 0.004	0.346 ± 0.023	0.235 ± 0.035	0.297 ± 0.02	0.27 ± 0.011
FLCLLSLFFLDF	0.532 ± 0.044	0.572 ± 0.024	0.461 ± 0.03	0.626 ± 0.036	0.462 ± 0.034	0.437 ± 0.011	0.575 ± 0.015	0.478 ± 0.052
FLFCACIRVFSY	0.0501 ± 0.0013	0.17 ± 0.019	0.144 ± 0.025	0.228 ± 0.0087	0.125 ± 0.0033	0.133 ± 0.014	0.195 ± 0.02	0.193 ± 0.0046
FLFSSLFCFLFL	0.461 ± 0.035	0.428 ± 0.0099	0.474 ± 0.021	0.565 ± 0.029	0.571 ± 0.018	0.46 ± 0.018	0.527 ± 0.0061	0.433 ± 0.01
FLLLVFGLLIDS	0.183 ± 0.004		0.246 ± 0.067	0.413 ± 0.022	0.188 ± 0.017	0.222 ± 0.03	0.379 ± 0.11	0.338 ± 0.016
FLLYRFSLVGCF	0.0567 ± 0.0082	0.108 ± 0.02	0.123 ± 0.031	0.194 ± 0.011	0.0828 ± 0.021	0.108 ± 0.032	0.189 ± 0.011	0.172 ± 0.026
FLLYVITYRSET	0.151 ± 0.0098	0.304 ± 0.046	0.21 ± 0.03	0.442 ± 0.047	0.161 ± 0.0042	0.225 ± 0.025	0.378 ± 0.038	0.335 ± 0.046
FLPLLFFFFFRF	0.377 ± 0.0075	0.292 ± 0.0066	0.391 ± 0.037	0.4846 ± 0.0032	0.569 ± 0.012	0.403 ± 0.022	0.479 ± 0.023	0.485 ± 0.008
FLPSLSLPLLLF	0.555 ± 0.0068	0.549 ± 0.02	0.425 ± 0.035	0.573 ± 0.015	0.376 ± 0.036	0.346 ± 0.017	0.479 ± 0.018	0.4318 ± 0.0012
FLSLVIVLRWFL	0.278 ± 0.048	0.303 ± 0.045	0.255 ± 0.022	0.381 ± 0.01	0.298 ± 0.021	0.242 ± 0.024	0.346 ± 0.02	0.347 ± 0.042
FLWAVSLCRSLV	0.607 ± 0.029	0.655 ± 0.022	0.548 ± 0.035	0.662 ± 0.015	0.178 ± 0.017	0.218 ± 0.026	0.385 ± 0.014	0.312 ± 0.029
FMRKLVVLVVLG	0.257 ± 0.029	0.307 ± 0.013	0.222 ± 0.031	0.4342 ± 0.0023	0.1923 ± 0.0019	0.206 ± 0.028	0.417 ± 0.046	0.347 ± 0.089
FMVYRIHSSAVM	0.127 ± 0.017	0.172 ± 0.014	0.251 ± 0.06	0.149 ± 0.006	0.265 ± 0.028	0.257 ± 0.038	0.14 ± 0.014	0.158 ± 0.0045
FPGPPSPPPSYF	0.699 ± 0.048	0.776 ± 0.001	0.639 ± 0.01	0.766 ± 0.0078	0.6435 ± 0.0011	0.6466 ± 0.0022	0.7451 ± 0.0065	0.706 ± 0.011
FPVWTALLTVRA	0.0896 ± 0.022	0.128 ± 0.015	0.181 ± 0.035	0.259 ± 0.0096	0.14 ± 0.024	0.189 ± 0.014	0.22 ± 0.029	0.262 ± 0.016
FRCRFLLPFYSV	0.673 ± 0.013	0.724 ± 0.0096	0.632 ± 0.0089	0.733 ± 0.01	0.403 ± 0.013	0.438 ± 0.014	0.603 ± 0.0033	0.482 ± 0.019
FRLCQRPVFLLS	0.586 ± 0.054	0.669 ± 0.014	0.542 ± 0.018	0.676 ± 0.0091	0.182 ± 0.0059	0.22 ± 0.017	0.408 ± 0.02	0.35 ± 0.0061
FSCSRNVLVTVV	0.192 ± 0.029	0.197 ± 0.019	0.229 ± 0.029	0.344 ± 0.0087	0.178 ± 0.015	0.209 ± 0.013	0.256 ± 0.0056	0.32 ± 0.049
FSFPIIFFGMFL	0.445 ± 0.021	0.463 ± 0.0054	0.394 ± 0.02	0.542 ± 0.006	0.426 ± 0.019	0.324 ± 0.033	0.51 ± 0.021	0.415 ± 0.0083

Sequence	protein stability index (Saccharomyces cerevisiae [1]; [3])	protein stability index (Saccharomyces cerevisiae [1]; [4])	protein stability index (Saccharomyces cerevisiae [1]; [5])	protein stability index (Saccharomyces cerevisiae [1]; [6])	protein stability index (Saccharomyces cerevisiae [1]; [7])	protein stability index (Saccharomyces cerevisiae [1]; [8])	protein stability index (Saccharomyces cerevisiae [1]; [9])	protein stability index (Saccharomyces cerevisiae [2])
FSFSFWALLWFP	0.495 ± 0.029	0.54 ± 0.017	0.438 ± 0.022	0.531 ± 0.0093	0.48 ± 0.031	0.429 ± 0.02	0.537 ± 0.02	0.466 ± 0.0093
FSFVVRMFFRIL	0.218 ± 0.009	0.266 ± 0.0039	0.39 ± 0.038	0.408 ± 0.022	0.0869 ± 0.019	0.0811 ± 0.015	0.0988 ± 0.0082	0.154 ± 0.014
FSLSLFPYPFSL	0.698 ± 0.022	0.764 ± 0.045	0.686 ± 0.02	0.765 ± 0.011	0.686 ± 0.01	0.672 ± 0.021	0.755 ± 0.018	0.755 ± 0.03
FSSFLGFIRFFV	0.661 ± 0.088	0.751 ± 0.0091	0.655 ± 0.022	0.751 ± 0.016	0.286 ± 0.018	0.315 ± 0.022	0.59 ± 0.04	0.426 ± 0.052
FTLFFVASVLDL	0.48 ± 0.021	0.518 ± 0.01	0.378 ± 0.03	0.53241 ± 0.00048	0.358 ± 0.007	0.386 ± 0.026	0.511 ± 0.011	0.446 ± 0.0073
FVGLFEYILLFV	0.186 ± 0.009	0.167 ± 0.029	0.201 ± 0.028	0.358 ± 0.0079	0.263 ± 0.0056	0.201 ± 0.028	0.348 ± 0.0072	0.29 ± 0.036
FVLLTFLFFWQF	0.349 ± 0.014	0.441 ± 0.028	0.321 ± 0.031	0.476 ± 0.019	0.287 ± 0.007	0.299 ± 0.018	0.441 ± 0.016	0.328 ± 0.03
FVLWYFCCVGCM	0.241 ± 0.017	0.305 ± 0.018	0.232 ± 0.026	0.366 ± 0.011	0.196 ± 0.015	0.226 ± 0.03	0.342 ± 0.03	0.321 ± 0.016
FVRCFWPFVFVF	0.17 ± 0.01	0.142 ± 0.021	0.222 ± 0.031	0.332 ± 0.0095	0.139 ± 0.0072	0.126 ± 0.0099	0.14 ± 0.012	0.203 ± 0.023
FVRGWGIVFSLA	0.571 ± 0.031	0.599 ± 0.023	0.438 ± 0.036	0.594 ± 0.015	0.225 ± 0.012	0.268 ± 0.016	0.467 ± 0.011	0.41 ± 0.01
FVWWFFFLSVVS	0.277 ± 0.0019	0.306 ± 0.023	0.265 ± 0.032	0.3987 ± 0.0029	0.255 ± 0.016	0.216 ± 0.018	0.334 ± 0.025	0.26 ± 0.018
FWILLRVLIFVL	0.176 ± 0.027	0.172 ± 0.0087	0.18 ± 0.033	0.321 ± 0.0095	0.182 ± 0.0047	0.175 ± 0.028	0.246 ± 0.03	0.266 ± 0.011
FYFMGFFFGLGM	0.589 ± 0.021	0.627 ± 0.052	0.519 ± 0.047	0.617 ± 0.057	0.481 ± 0.016	0.504 ± 0.016	0.597 ± 0.023	0.516 ± 0.046
FYLFPSLPLLLL	0.424 ± 0.018	0.432 ± 0.022	0.422 ± 0.018	0.544 ± 0.03	0.477 ± 0.023	0.339 ± 0.03	0.46 ± 0.0072	0.452 ± 0.044
FYLSFWFLIFFF	0.227 ± 0.011	0.251 ± 0.023	0.273 ± 0.031	0.353 ± 0.029	0.325 ± 0.036	0.215 ± 0.036	0.315 ± 0.017	0.312 ± 0.0092
GCCFVCSVFWWG	0.407 ± 0.0055	0.493 ± 0.0055	0.348 ± 0.031	0.528 ± 0.0081	0.327 ± 0.014	0.353 ± 0.015	0.507 ± 0.011	0.431 ± 0.011
GCWRVELLVFMC	0.0459 ± 0.0044	0.205 ± 0.011	0.185 ± 0.03	0.33 ± 0.015	0.053 ± 0.02	0.0595 ± 0.017	0.0748 ± 0.03	0.0681 ± 0.02
GDFYCSSVVLVV	0.401 ± 0.013	0.401 ± 0.036	0.332 ± 0.032	0.484 ± 0.018	0.278 ± 0.014	0.32 ± 0.031	0.445 ± 0.0082	0.306 ± 0.0044
GEGISCLLRRLT	0.662 ± 0.013	0.709 ± 0.018	0.661 ± 0.024	0.713 ± 0.036	0.2625 ± 0.00058	0.286 ± 0.022	0.544 ± 0.033	0.413 ± 0.057
